US20050026233A1, “Methods of monitoring and modulating LKB1 activity and its downstream targets” (Medical Research Council, priority 2003, published 2005)

Assays:
AMPK = experiment: Phosphorylation of T172 of AMPK by immunoblotting with anti-phosphothreonine 172 antibody; format: biochemical, mammalian; conditions: immunoblot
Description: (§1) The beads were removed by centrifugation, and proteins in the supernatant were analyzed by SDS-PAGE and autoradiography. Molecular size markers (kDa) are indicated. (C) Bacterially expressed AMPK (0.15 μg) was phosphorylated by GST-Tos3p and analysed by immunoblotting with anti-phosphothreonine 172 specific antibody (Cell Signalling Technologies). AMPK was also incubated with GST or partially purified rat liver AMPKK (Hawley, 1996).
Phosphorylation of T172 was determined by immunoblotting (FIG. 4E).
Bacterially expressed AMPK (α1β1γ1) was purified by chromatography using Ni-NTA agarose (Qiagen) as previously described (the purification is as in Neumann et al., 2003 Protein Expression and Purification, incorporated herein by reference). AMPK was incubated with 100 μM ATP, 5 mM MgCl2, 200 μM AMP and 1 mM DTT in 50 mM Hepes, pH 7.4 in the presence or absence of upstream kinase for 30 min at 30° C. Following brief centrifugation, the supernatant containing AMPK was removed and activity measured using the SAMS peptide assay (Davies et al., 1989). Phosphorylation of T172 was determined by Western blotting using an antibody that specifically recognizes phospho-threonine 172 within the α subunit of AMPK (Cell Signaling Technologies).

AMPK (α1β1γ1) = molecular target: T1, AMPK (α1β1γ1) (Rattus norvegicus, UniProt P54645); experiment: Activation of bacterially expressed AMPK by upstream kinase, SAMS peptide assay; format: biochemical, mammalian; conditions: recombinant AMPK α1β1γ1, MgATP, 30 min at 30° C
T1 construct: made in house; host or cells: bacteria (E. coli per the title of Neumann 2003)
T1 sequence (P54645 13-559 limits assumed): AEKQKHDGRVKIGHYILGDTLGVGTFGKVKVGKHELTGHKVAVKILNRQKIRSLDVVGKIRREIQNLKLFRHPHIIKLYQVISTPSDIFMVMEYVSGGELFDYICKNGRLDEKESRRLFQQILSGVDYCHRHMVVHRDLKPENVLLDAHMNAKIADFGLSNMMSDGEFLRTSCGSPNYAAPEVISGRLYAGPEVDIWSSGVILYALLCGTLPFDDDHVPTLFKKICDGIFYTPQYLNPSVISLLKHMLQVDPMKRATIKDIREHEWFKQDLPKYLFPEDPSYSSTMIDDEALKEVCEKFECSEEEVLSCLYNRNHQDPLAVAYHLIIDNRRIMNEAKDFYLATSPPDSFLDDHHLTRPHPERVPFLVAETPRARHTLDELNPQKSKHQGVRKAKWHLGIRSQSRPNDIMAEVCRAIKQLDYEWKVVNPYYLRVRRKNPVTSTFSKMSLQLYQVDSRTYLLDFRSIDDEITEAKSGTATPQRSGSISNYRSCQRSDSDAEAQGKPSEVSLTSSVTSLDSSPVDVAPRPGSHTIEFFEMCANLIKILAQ
T1 sequence (P80386 whole entry partner): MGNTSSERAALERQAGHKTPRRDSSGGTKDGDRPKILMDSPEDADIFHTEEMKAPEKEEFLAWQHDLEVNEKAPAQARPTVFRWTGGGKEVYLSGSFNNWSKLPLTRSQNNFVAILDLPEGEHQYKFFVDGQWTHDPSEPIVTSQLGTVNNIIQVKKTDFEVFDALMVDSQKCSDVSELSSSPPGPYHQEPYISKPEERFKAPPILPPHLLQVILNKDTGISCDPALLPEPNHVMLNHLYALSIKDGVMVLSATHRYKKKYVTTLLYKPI
T1 sequence (P80385 whole entry partner): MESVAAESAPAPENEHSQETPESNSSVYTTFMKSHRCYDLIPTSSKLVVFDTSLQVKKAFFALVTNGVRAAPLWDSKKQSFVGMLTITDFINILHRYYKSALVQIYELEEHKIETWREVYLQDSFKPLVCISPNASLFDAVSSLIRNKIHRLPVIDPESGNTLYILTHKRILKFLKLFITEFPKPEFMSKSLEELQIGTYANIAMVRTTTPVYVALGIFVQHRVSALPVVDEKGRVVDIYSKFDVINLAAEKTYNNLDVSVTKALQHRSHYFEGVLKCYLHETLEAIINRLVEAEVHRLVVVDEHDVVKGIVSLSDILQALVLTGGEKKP
Description: FIG. 4. Tos3p and LKB1 phosphorylate and activate AMPK in vitro. (A) Bacterially expressed AMPK (α1β1γ1 (Neumann, 2003)) was incubated with MgATP and GST-kinase bound to glutathione-Sepharose for 30 min at 30° C. Following centrifugation to remove the resin, AMPK activity in the supernatant was measured using the SAMS peptide assay (Davies, 1989).
as §1, with “AMPK was also incubated with GST or partially purified rat liver AMPKK (Hawley, 1996).” left out
Recombinant AMPK (α1β1γ1) expressed in bacteria (Neumann, 2003) was incubated with each of the kinases and MgATP, and AMPK activity was determined using the SAMS peptide assay. […]
Following centrifugation to remove the resin, AMPK activity in the supernatant was measured using the SAMS peptide assay (Davies, 1989).
Bacterially expressed AMPK (α1β1γ1) was purified by chromatography using Ni-NTA agarose (Qiagen) as previously described (the purification is as in Neumann et al., 2003 Protein Expression and Purification, incorporated herein by reference). […] Following brief centrifugation, the supernatant containing AMPK was removed and activity measured using the SAMS peptide assay (Davies et al., 1989). […]

AMPK, sequence (P54645 13-559 limits assumed): as the sequence (P54645 13-559 limits assumed) above
AMPK, sequence (P80386 whole entry partner): as the sequence (P80386 whole entry partner) above
AMPK, sequence (P80385 whole entry partner): as the sequence (P80385 whole entry partner) above

B1: LKB1: FLAG-tagged full length wild-type mouse LKB1 tumor suppressor kinase purified from COS7 cell lysates (protein, UniProt Q9WTK7 1-436, looked up)
chain: MDVADPEPLGLFSEGELMSVGMDTFIHRIDSTEVIYQPRRKRAKLIGKYLMGDLLGEGSYGKVKEVLDSETLCRRAVKILKKKKLRRIPNGEANVKKEIQLLRRLRHRNVIQLVDVLYNEEKQKMYMVMEYCVCGMQEMLDSVPEKRFPVCQAHGYFRQLIDGLEYLHSQGIVHKDIKPGNLLLTTNGTLKISDLGVAEALHPFAVDDTCRTSQGSPAFQPPEIANGLDTFSGFKVDIWSAGVTLYNITTGLYPFEGDNIYKLFENIGRGDFTIPCDCGPPLSDLLRGMLEYEPAKRFSIRQIRQHSWFRKKHPLAEALVPIPPSPDTKDRWRSMTVVPYLEDLHGRAEEEEEEDLFDIEDGIIYTQDFTVPGQVLEEEVGQNGQSHSLPKAVCVNGTEPQLSSKVKPEGRPGTANPARKVCSSNKIRRLSACKQQ
modifications: full-length FLAG tag
notes: FLAG-tagged full length wild-type mouse LKB1 tumor suppressor kinase purified from COS7 cell lysates
Q: Which “Phosphorylation of AMPK on T172” value (AMPK) does the source give for B1 here?
A: phosphorylated T172

Q: What about the “AMPK activity after incubation with upstream kinase” value (AMPK (α1β1γ1)) of the same molecule?
A: activated recombinant AMPK
